# Assay results as given in US20140004122A1, “METHODS FOR TREATING OR PREVENTING CHOLESTEROL RELATED DISORDERS” (AMGEN INC., priority 2011, published 2014).
# Entries after “also recorded” stand apart in the source; their conditions may differ.
# B1: 21B12: human anti-PCSK9 monoclonal antibody; light/heavy variable region SEQ ID NO 23/49 (antibody, listed as Homo sapiens, V domains shown)
# VH: QVQLVQSGAEVKKPGASVKVSCKASGYTLTSYGISWVRQAPGQGLEWMGWVSFYNGNTNYAQKLQGRGTMTTDPSTSTAYMELRSLRSDDTAVYYCARGYGMDVWGQGTTVTVSS
# VL: QSALTQPASVSGSPGQSITISCTGTSSDVGGYNSVSWYQQHPGKAPKLMIYEVSNRPSGVSNRFSGSKSGNTASLTISGLQAEDEADYYCNSYTSTSMVFGGGTKLTVL
# What was measured:
# [1] = test system: hypercholesterolemic subjects unable to tolerate an effective dose of an HMG-CoA reductase inhibitor; assay: 12 week study vs ezetimibe in statin-intolerant patients (Example 23); type: in vivo, human; conditions: preliminary
# Protocol: It is planned to enroll 150 subjects. […] Randomization will be stratified by screening LDL-C level (<130 mg/dL [3.4 mmol/L] vs≧130 mg/dL) and statin use at baseline (yes vs no). Randomization should occur within 5-10 days of the screening LDL-C evaluation used to determine eligibility. Monoclonal antibody, 21B12, and placebo will be blinded. Ezetimibe is not blinded. Study visits are at weeks 2, 4, 8, and 12. […] The end-of-study visit and the last evaluation of lipids is at week 12.
# Males and females, ≧18 to ≦75 years of age, are eligible for this study. Subject must have tried at least 1 statin and have been unable to tolerate any dose or an increase in statin dose above the following total weekly maximum doses due to myalgia or myopathy: atorvastatin ≦70 mg, simvastatin ≦140 mg, pravastatin ≦140 mg, rosuvastatin ≦35 mg, lovastatin ≦140 mg, fluvastatin ≦280 mg. For unlisted statins, the maximal total weekly dose should not exceed 7 times the smallest available tablet size. Symptoms must have resolved when statin was discontinued or the dose reduced. If receiving statin (not exceeding the maximal dose defined above), bile-acid sequestering resin, and/or stanol therapy, the dose(s) must be stable for at least 4 weeks prior to LDL-C screening. If the subject is on ezetimibe at start of screening, ezetimibe must be discontinued for ≧4 weeks before LDL-C screening. Depending on their risk category (based on NCEP ATP III treatment goals) subjects must meet the following fasting LDL-C (by central laboratory) criteria at screening: ≧100 mg/dL (2.6 mmol/L) for subjects with diagnosed coronary heart disease (CHD) or CHD risk equivalent; ≧130 mg/dL (3.4 mmol/L) for subjects without diagnosed CHD or risk equivalent and 2 or more risk factors; ≧160 mg/dL (4.1 mmol/L) for subjects without diagnosed CHD or risk equivalent and with 1 or no risk factors. Fasting triglycerides must be ≦400 mg/dL (4.5 mmol/L) as determined by the central laboratory analysis at screening.
# [2] = test system: subjects with hyperlipidemia on stable doses of a statin; assay: Phase 1b ascending multiple dose study on stable statin (Example 21); type: in vivo
# Protocol: The study had seven cohorts. […] Cohort 6 was conducted in hypercholesterolemic subjects on high doses of a statin (atorvastatin 80 mg or rosuvastatin 40 mg).
# [3] = test system: human patient exhibiting symptoms of hypercholesterolemia; assay: Treatment of hypercholesterolemia (Example 17); type: in vivo; conditions: therapeutically effective amount
# From the text: At periodic times during the treatment, the human patient is monitored to determine whether the serum cholesterol level has declined.
# [4] = test system: human patient exhibiting a risk of developing hypercholesterolemia; assay: Prevention of hypercholesterolemia (Example 19); type: in vivo; conditions: regularly administered (e.g., one time weekly)
# From the text: At periodic times during the treatment, the patient is monitored to determine whether serum cholesterol levels have decreased.
# LDLR in HepG2 cells = assay: LDLR levels with statin and ABP in HepG2 cells (immunoblot); type: cell-based, human; conditions: HepG2 and HepG2-PCSK9 cells, with mevinolin, 48 hours
# Protocol: HepG2 cells were seeded in DMEM with 10% fetal bovine serum (FBS) and grown to ˜90% confluence. The cells were treated with indicated amounts of mevinolin (a statin, Sigma) and PCSK9 ABPs (FIGS. 12A-12C) in DMEM with 3% FBS for 48 hours. Total cell lysates were prepared. […] of total proteins were separated by gel electrophoresis and transferred to PVDF membrane. Immunoblots were performed using rabbit anti-human LDL receptor antibody (Fitzgerald) or rabbit anti-human b-actin antibody. The enhanced chemiluminescent results are shown in the top panels of FIGS. 12A-12C. The intensity of the bands were quantified by ImageJ software and normalized by b-actin. The relative levels of LDLR are shown in the lower panels of FIGS. 12A-12C.
# [5] = 280 mg Q4W SC, end of the dosing interval
# [6] = 350 mg Q4W SC, end of the dosing interval
# [7] = cohort 6, high-dose statins, 140 mg SC Q2W 3 times
molecule,measurement,setting,value
B1,LS mean percent increase from baseline in HDL-C,[1]; [5],8.62%
same,LS mean percent reduction from baseline in LDL-C,[1]; [5],38.79%
same,LS mean percent reduction from baseline in Lp(a),[1]; [5],27.38%
same,LS mean percent reduction from baseline in VLDL-C,[1]; [5],31.02%
same,LS mean percent reduction from baseline in non-HDL-C,[1]; [5],39.92%
same,LS mean percent reduction from baseline in total cholesterol,[1]; [5],31.03%
same,LS mean percent reduction from baseline in triglycerides,[1]; [5],15.35%
same,LS mean percent increase from baseline in HDL-C,[1]; [6],4.62%
same,LS mean percent reduction from baseline in LDL-C,[1]; [6],40.01%
same,LS mean percent reduction from baseline in Lp(a),[1]; [6],16.04%
same,LS mean percent reduction from baseline in VLDL-C,[1]; [6],38.14%
same,LS mean percent reduction from baseline in non-HDL-C,[1]; [6],42.86%
same,LS mean percent reduction from baseline in total cholesterol,[1]; [6],34.46%
same,LS mean percent reduction from baseline in triglycerides,[1]; [6],19.22%
same,LS mean percent increase from baseline in HDL-C,[1]; 420 mg Q4W SC,7.55%
same,LS mean percent reduction from baseline in LDL-C,[1]; 420 mg Q4W SC,50.63%
same,LS mean percent reduction from baseline in Lp(a),[1]; 420 mg Q4W SC,23.84%
same,LS mean percent reduction from baseline in VLDL-C,[1]; 420 mg Q4W SC,37.27%
same,LS mean percent reduction from baseline in non-HDL-C,[1]; 420 mg Q4W SC,53.49%
same,LS mean percent reduction from baseline in total cholesterol,[1]; 420 mg Q4W SC,42.23%
same,LS mean percent reduction from baseline in triglycerides,[1]; 420 mg Q4W SC,19.55%
same,maximum ApoB reduction during the study,[2]; 35 mg QW,48%
same,maximum ApoB reduction during the study,[2]; 140 mg and 280 mg Q2W and 420 mg Q4W,59%
same,plasma PCSK9,[2]; at higher doses,undetectable
same,suppression of PCSK9,"[2]; cohort 3, 140 mg Q2W SC 3 times, preliminary",Near-complete suppression of PCSK9
same,maximum reduction in LDL-C versus placebo,[2]; [7],73%
same,mean reduction in LDL-C vs placebo at the end of the dosing interval,[2]; [7],63%
same,maximum LDL-C reduction versus placebo,[2]; cohort 7 heFH,70%
same,maximum reduction of ApoB versus placebo,[2]; cohort 7 heFH,57%
same,maximum reduction of non-HDL cholesterol versus placebo,[2]; cohort 7 heFH,67%
same,maximum total cholesterol reduction versus placebo,[2]; cohort 7 heFH,47%
same,serious AEs,[2]; cohort 7 heFH,No serious AEs were reported
same,mean reduction in LDL-C vs placebo at the end of the dosing interval,"[2]; cohort 7 heFH, 140 mg SC Q2W 3 times, week 6",65%
same,mean reduction in ApoB levels vs placebo,"[2]; cohort 7 heFH, week 6",up to 47%
same,mean reduction in lipoprotein a (Lp(a)) vs placebo,"[2]; cohort 7 heFH, week 6",50%
same,mean reduction in non-HDL cholesterol vs placebo,"[2]; cohort 7 heFH, week 6",61%
same,mean reduction in serum PCSK9 values vs placebo,"[2]; cohort 7 heFH, week 6",78%
same,mean reduction in total cholesterol vs placebo,"[2]; cohort 7 heFH, week 6",up to 42%
same,mean ApoB reduction vs placebo at the end of the dosing interval,[2]; cohorts 1-5,up to 54%
same,mean reduction of PCSK9 levels vs placebo at the end of the dosing interval,[2]; cohorts 1-5,up to 94%
same,mean LDL-C reduction vs placebo at maximal reduction,"[2]; cohorts 1-5, low to moderate doses of statins, 3 biweekly SC doses",up to 81%
same,mean LDL-C reduction vs placebo at the end of the dosing interval,"[2]; cohorts 1-5, week 6 after 3 biweekly SC doses",≤ 75%
same,mean LDL-C reduction at the end of the dosing interval,"[2]; cohorts 1-5, week 8 after 2 every 4 week SC doses",≤ 66%
same,mean Lp(a) reduction vs placebo at the end of the dosing interval,[2]; cohorts 1-6,up to 43%
same,deaths or serious adverse events,"[2]; cohorts 1-6, final results",No deaths or serious adverse events (AEs) were reported; also recorded: no serious AEs
same,neutralizing antibodies to 21B12,"[2]; cohorts 1-6, final results",No neutralizing antibodies to 21B12 were detected
same,circulating PCSK9,[2]; heFH subjects after treatment,undetectable
same,LDL-C nadir observed within (after initial dosing),"[2]; preliminary, cohorts 1-3, stable moderate doses of statins",≤ 2 weeks
same,decrease of circulating LDL-C vs placebo,"[2]; repeated SC doses over 6 weeks, low-to-moderate or high-dose statins",up to 81%
same,serum cholesterol levels vs patients not receiving the treatment,[3],reduced serum cholesterol levels
same,serum cholesterol levels vs subjects that are not treated,[4],lowered serum cholesterol levels
same,LDLR levels compared with the 25A7.1 ABP (a non-neutralizer),LDLR in HepG2 cells,greater increase in LDLR levels
